Results reported in ChEMBL document CHEMBL4052696, “Varic acid analogues from fungus as PTP1B inhibitors: Biological evaluation and structure-activity relationships” (Bioorg Med Chem Lett, 2017).

Key:
Conditions in all cases: Homo sapiens
[1] = compound: CCCc1cc(OC(=O)c2c(O)cc(OC(=O)c3c(O)cc(O)cc3CCC)cc2CCC)cc(O)c1C(=O)O; experiment: Competitive inhibition of PTP1B (unknown origin) assessed as Km(app) for substrate at 0.4 uM using p-nitrophenyl phosphate substrate incubated for 30 mins by Lineweaver-Burk double reciprocal plot (reference value: 1.43 mM)
[2] = compound: CCCc1cc(OC(=O)c2c(O)cc(OC(=O)c3c(O)cc(O)cc3CCC)cc2CCC)cc(O)c1C(=O)O; experiment: Competitive inhibition of PTP1B (unknown origin) assessed as Km(app) for substrate at 0.25 uM using p-nitrophenyl phosphate substrate incubated for 30 mins by Lineweaver-Burk double reciprocal plot (reference value: 1.43 mM)
[3] = compound: CCCc1cc(OC(=O)c2c(O)cc(OC(=O)c3c(O)cc(O)cc3CCC)cc2CCC)cc(O)c1C(=O)O; experiment: Competitive inhibition of PTP1B (unknown origin) assessed as Km(app) for substrate at 0.1 uM using p-nitrophenyl phosphate substrate incubated for 30 mins by Lineweaver-Burk double reciprocal plot (reference value: 1.43 mM)

B1: Tyrosine-protein phosphatase non-receptor type 1 (Homo sapiens), P18031 (protein)
chain: MEMEKEFEQIDKSGSWAAIYQDIRHEASDFPCRVAKLPKNKNRNRYRDVSPFDHSRIKLHQEDNDYINASLIKMEEAQRSYILTQGPLPNTCGHFWEMVWEQKSRGVVMLNRVMEKGSLKCAQYWPQKEEKEMIFEDTNLKLTLISEDIKSYYTVRQLELENLTTQETREILHFHYTTWPDFGVPESPASFLNFLFKVRESGSLSPEHGPVVVHCSAGIGRSGTFCLADTCLLLMDKRKDPSSVDIKKVLLEMRKFRMGLIQTADQLRFSYLAVIEGAKFIMGDSSVQDQWKELSHEDLEPPPEHIPPPPRPPKRILEPHNGKCREFFPNHQWVKEETQEDKDCPIKEEKGSPLNAAPYGIESMSQDTEVRSRVVGGSLRGAQAASPAKGEPSLPEKDEDHALSYWKPFLVNMCVATVLTAGAYLCYRFLFNSNT
[1]
  Km: 91 mM
[2]
  Km: 44 mM
[3]
  Km: 12 mM
